This note sets out measurements from US5679641A, “Peptides of human P53 protein for use in human T cell response inducing compositions, and human P53 protein-specific cytotoxic t-lymphocytes” (Rijksuniversiteit Leiden, priority 1992, dated 1997).

The target in experiment [1] is T1, HLA-A2.1 molecule (Homo sapiens, UniProt P04439, D140Y/D185E/D98H/E176V/E277Q/G131W/G231S/I119V/I121R/I166T/I218V/L300P/L318F/N151K/N90K/P208A/P217A/Q86G/Q94H/R138H/R169H/T345S).
T1 construct: endogenous in cells; host or cells: 174.CEM T2 (antigen-processing-defective human T x B hybrid cell line, provided by P. Cresswell)
Put plainly: Peptide binding: upregulation of HLA-A2.1 expression on (174.CEM) T2 cells, FACScan. Format: cell-based. As to conditions: for fluorescence ratio (i.e. binding ability): 200 μg/ml peptide, 16 hours at 37° C., (174.CEM) T2 cells, antibody BB7.2, mean fluorescence with peptide divided by without, positive when ratio of 1.2 is reached.

The subject of experiment [2] is HLA-A2.1 positive PBL. Nature of the experiment: Induction of primary in vitro CTL response with peptide loaded 174CEM.T2 cells, cloning of CTL. Type of experiment: cell-based, human. As to conditions: peptide loaded antigen processing defective cell line 174.CEM T2, peptide 80 μg/ml, PBL of healthy HLA-A2.1 positive donor. How it is done:
Responder T cells are included in mononuclear white blood cells (PBL) of an HLA-A2.1 positive healthy donor. The PBL were separated from a buffycoat by Ficoll procedure (LYMPHOPREP of Nycomed-pharma, Oslo, Norway, cat. no. 105033) and washed two times in RPMI 1640 (Gibco Paislan, Scotland, cat. no. 041-02409) supplemented with 30% pooled human serum (tested for its capacity to support mixed lymphocyte cultures), 2 mM glutamine (ICN Biochemicals, Inc., Costa Mesa, Calif., USA, cat. no. 15-801-55), penicillin (100 IU/ml, Brocades Pharma, Leiderdorp, The Netherlands), kanamycin ([…], Sigma, St. Louis, Mo., USA).
174CEM.T2 (T2) cells in a concentration of 2×10^6 per ml were incubated for 13 hours at 37° C. in a T25 flask (Falcon, Becton & Dickinson, Plymouth, England, cat. no. 3013) in serum-free ISCOVE's medium (Biochrom KG, Seromed, Berlin, Gemany, cat. no. F0465) with glutamine (2 mM, ICN Biochemicals Inc., Costa Mesa, Calif., USA, cat. no. 15-801-55) and antibiotics as mentioned under 2 and individual p53 peptides at a final concentration of 80 μg/ml. Subsequently the T2 cells were spun down and treated at a density of 20×10^6 cells/ml with Mitomycin C (final concentration 50 μg/ml) in serum-free RPMI 1640 (manufacturer see 2) medium during one hour at 37° C. Thereafter the T2 cells were washed three times in RPMI 1640. […]

No end group written: not given here.

In the case of “KLFCQLAXT (KLFCQLAKT) [compound 29, residues 132-140 of human mp53 (mutant p53)]”, the “fluorescence ratio (i.e. binding ability)” value in experiment [1] is recorded as 1.3. The same measure, in the same setting: the same measure for ALNKMFYQL [compound 27]: 1.2; for `CSCC[C@H](NC(=O)[C@H](CCCCN)NC(=O)[C@H](CC(N)=O)NC(=O)[C@H](CC(C)C)NC(=O)[C@H](C)N)C(=O)N[C@@H](Cc1ccccc1)C(=O)N[C@@H](CS)C(=O)N[C@@H](CCC(N)=O)C(=O)N[C@@H](CC(C)C)C(=O)N[C@@H](C)C(=O)O` [compound 11, ALNKMFCOLA]: 1.4.

Consider “LLPENNVLS [compound 3, residues 25-33 of human p53]”, for which the “primary in vitro human CTL response against the peptide” value in experiment [2] is on record as “possible so far to generate a primary in vitro human CTL response”. Besides, the “fluorescence ratio (i.e. binding ability)” value in experiment [1] stood at 1.7. For the same compound, the “binding to HLA-A2.1 molecule (in words)” value in experiment [1] (174.CEM T2 cells, mean HLA-A2.1 fluorescence) is on record as “strong ability to bind to HLA-A2.1”.
